Tests used:
His-ASF/SF2 [1] = target: T1, His-ASF/SF2 (UniProt Q07955 1-248); assay: intrinsic tryptophan fluorescence quenching; no appKD; loss of binding stated; 100 mM KCl, 20 mM Tris-HCl pH 7.5, room temperature, 100 nM His-ASF/SF2, excitation 280 nm, emission 340 nm; details: protein: recombinant; tags: C-terminal His6; hairpin
His-ASF/SF2 [2] = target: T1, His-ASF/SF2; assay: intrinsic tryptophan fluorescence quenching; no appKD could be calculated; 100 mM KCl, 20 mM Tris-HCl pH 7.5, room temperature, 100 nM His-ASF/SF2, excitation 280 nm, emission 340 nm; details: protein: recombinant; tags: C-terminal His6; hairpin
His-ASF/SF2 [3] = target: T1, His-ASF/SF2; assay: intrinsic tryptophan fluorescence quenching; apparent KD; 100 mM KCl, 20 mM Tris-HCl pH 7.5, room temperature, 100 nM His-ASF/SF2, excitation 280 nm, emission 340 nm; details: protein: recombinant, tags: C-terminal His6

T1 sequence (Q07955 whole entry): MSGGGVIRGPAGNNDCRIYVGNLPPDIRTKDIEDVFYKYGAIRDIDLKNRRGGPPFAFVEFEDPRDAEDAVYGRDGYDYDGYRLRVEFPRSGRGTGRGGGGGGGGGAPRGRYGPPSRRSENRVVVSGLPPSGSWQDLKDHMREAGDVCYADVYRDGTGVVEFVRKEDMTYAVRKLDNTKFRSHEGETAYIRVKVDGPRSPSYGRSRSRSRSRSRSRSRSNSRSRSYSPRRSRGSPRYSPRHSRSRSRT

Row | Binder | binding result (His-ASF/SF2 [2]) | Kd (His-ASF/SF2 [3]; hairpin) [nM] | other results
1 | R177GΔASF (structured_RNA) RNA: GGAUCUCUUCCGCGGUUCUUCCUCGACUCGGCCCGGCUCAUCUCGGCUAGAGGCGGCAGUCCUCAGUACUCUUACUCUUUUCUGUAAAGAGGAGACUGCUGGACUCGCCGCCCGAGGCCGAGCCUGAGCCAAGUGCCGAGCGAGGAGACGCGGGUCAGCACC |  |  | binding result (His-ASF/SF2 [1]): no binding
2 | AGUCCUCAGUACUCUUACUCUUUUCUGUAAAGAGGAGACUGCUGGACU (structured_RNA) [R47G] | no binding |  | 
3 | R199G (structured_RNA) RNA: GGGACUGCUCGAGGAUCUCUUCUCUCCCUCCGCGGUUCUUCCUCGACUCGGCCCGGCUCAUCUCGGCUAGAGGCGGCAGUCCUCAGUACUCUUACUCUUUUCUGUAAAGAGGAGACUGCUGGACUCGCCGCCCGAGGCCGAGCCUGAGCCAAGUGCCGAGCGAGGAGACGCGGGGGGAGGAUCAGCACCCGAGAGGGGAUGU |  |  | Kd (His-ASF/SF2 [3]; rod-like hairpin): ~640 nM
4 | R161G (structured_RNA) RNA: UCUCUCCCUCCGCGGUUCUUCCUCGACUCGGCCCGGCUCAUCUCGGCUAGAGGCGGCAGUCCUCAGUACUCUUACUCUUUUCUGUAAAGAGGAGACUGCUGGACUCGCCGCCCGAGGCCGAGCCUGAGCCAAGUGCCGAGCGAGGAGACGCGGGGGGAGGA |  | ~900 | 
5 | R177G (structured_RNA) RNA: GGAUCUCUUCUCUCCCUCCGCGGUUCUUCCUCGACUCGGCCCGGCUCAUCUCGGCUAGAGGCGGCAGUCCUCAGUACUCUUACUCUUUUCUGUAAAGAGGAGACUGCUGGACUCGCCGCCCGAGGCCGAGCCUGAGCCAAGUGCCGAGCGAGGAGACGCGGGGGGAGGAUCAGCACC |  | ~870 | 
6 | R156G (structured_RNA) RNA: CUCCCUCCGCGGUUCUUCCUCGACUCGGCCCGGCUCAUCUCGGCUAGAGGCGGCAGUCCUCAGUACUCUUACUCUUUUCUGUAAAGAGGAGACUGCUGGACUCGCCGCCCGAGGCCGAGCCUGAGCCAAGUGCCGAGCGAGGAGACGCGGGGGGAG | no binding |  | 
